{
  "source": "the DeepSol protein solubility set",
  "data": [
    {"test": "soluble on expression in E. coli; label from the status in PepcDB or PDB records", "values": [
      {"sequence": "MPEVVFYPQNKSINVEEGTTILQAARSAGVIIESPCNGTGTCGKCKVRLDEKSLPNVLAKSRHYLSKEEEEQGYVLACETQITGDIKVELGENKQNGTLKILSRGHSFNIDLKPFIRKEYFVHEDVTKVFAGKEQLGIEAGDTTKENYGAVVDIGTTTLVASIVNLNNGDEIGTSSALNPQAVHAQDVLSRIKFSSDADGLKVMHSELTDKINSMIGKIALRAGISKEHIYEIVFSGNTCMLHLASNTCPESLGKYPYTPKISGAAYLDAAKYNIDISPFGIIYLPPIISAYVGADIVSGILASQLHEKDGVILFVDIGTNGEMVLASCGNLSATSTAAGPAFEGMNITCGMRAGEAAIEFFEIEEQGSINIKVIGETEAAGICGSGLLDMVGEFAAHGVIKKNGQFIDPESENVLHPKLAERLVRQDGKWIFKVTDKVFLSQKDIRQVQLAKGAVRAGIEFLLENKGVRASDVDKVLIAGSFGYHLREKSLINIGLLPKEFEGKVEFVGNTSLSGAKAFLLNQTYREKMKETVKSVEVLELANYKDFDRVFVRCLSFLEHHHHHH", "soluble on expression in E. coli": "not soluble"},
      {"sequence": "MGSDKIHHHHHHMHISNMDGLDILSLKILVSLYENKSATYVSKALDIPAPKISRSLKNLREIFGDELFIRRKYGLFPNEFATHLYPIAKEAIECTDKFHKARAANANLVKTHIEIAAPGLIAYAFPKALMQAIKDEQKLMHINITPWSMHTTQDIINGDTTLGICCNKSTADVAAFGDKLLTTTLQSMDKVYLLASRNHPIFKREITLETIAEYPYVNTDLGNPSSKLSPYQEFCLKSNIKLNTEITITSISSLFEYLGESQALSLLPYRVVYEMVSDVAELHTCQLSQLEAERLYAHAEAPTIFLVQKNQPNKVNDDLVWLSGQIKKIVDHII", "soluble on expression in E. coli": "not soluble"},
      {"sequence": "GRWILKNDVKNRSVYIKGFPTDATLDDIKEWLEDKGQVLNIQMRRTLHKAFKGSIFVVFDSIESAKKFVETPGQKYKETDLLILFKDDYFAKKNEERKQNKVE", "soluble on expression in E. coli": "soluble"},
      {"sequence": "MSDVAEEKAEFLVIRTYGSESFRKECADLIEKELHKLNATIARVPVGEFVAYAENAVKNETDSEAVGSSSVKRENSANDSPANTNDVDIVSSPVKRGRGRKAKNPSADADVNDTGSSPVKKGRGRPIKNPSADAGSPLVKKGRGRRAQTPAADTDAIDTASSPVKKGRGRPAKNPSADAGSPLVKKGRGRQAKNLAADTDAIDTASSPVKKGRGRPLKKTAAEADVNGLGSPSANRITGCPPSTKVSNQSSPPEPAVNESEEADEPVLKRGRSVKQPKDESESDDEDAEKAPAAIPKKRGRPGKSAIDAFFDGSD", "soluble on expression in E. coli": "soluble"},
      {"sequence": "HHHHHHSEEEAIQIIADPPLPPASFTLRDYVDHSETLQKLVLLGVDLSKIEKHPEAANLLLRLDFEKDIKQMLLFLKDVGIEDNQLGAFLTKNHAIFSEDLENLKTRVAYLHSKNFSKADVAQMVRKAPFLLNFSVERLDNRLGFFQKELELSVKKTRDLVVRLPRLLTGSLEPVKENMKVYRLELGFKHNEIQHMITRIPKMLTANKMKLTETFDFVHNVMSIPHHIIVKFPQVFNTRLFKVKERHLFLTYLGRAQYDPAKPNYISLDKLVSIPDEIFCEEIAKASVQDFEKFLKTL", "soluble on expression in E. coli": "soluble"},
      {"sequence": "MGSDKIHHHHHHMVAKKKILFFMWSFSLGGGAEKILSTIVSNLDPEKYDIDILEMEHFDKGYESVPKHVRILKSLQDYRQTRWLRAFLWRMRIYFPRLTRRLLVKDDYDVEVSFTIMNPPLLFSKRREVKKISWIHGSIEELLKDSSKRESHRSQLDAANTIVGISKKTSNSIKEVYPDYTSKLQTIYNGYDFQTILEKSQEKIDIEIAPQSICTIGRIEENKGSDRVVEVIRLLHQEGKNYHLYFIGAGDMEEELKKRVKEYGIEDYVHFLGYQKNPYQYLSQTKVLLSMSKQEGFPGVYVEALSLGLPFISTDVGGAEELSQEGRFGQIIESNQEAAQAITNYMTSASNFDVDEASQFIQQFTITKQIEQVEKLLEE", "soluble on expression in E. coli": "not soluble"},
      {"sequence": "MNNAMQLLQPYPFKKLRALLGSVTPNPEKRPVALSIGEPKHRSPDFVAKALADNLDQMAVYPTTLGIPALREAIAGWCNRRFGVPQGWIDPARNVLPVNGTREALFAFTQTVVNRSDDGLVVSPNPFYQIYEGAAFLAGAQPHYLPCLSDNGFNPDFDAVDADIWKRCQILFLCSPGNPTGALIPVETLKKLIALADEHDFVIAADECYSELYFDEQTPPPGLLSACVELGRQDFKRCVVFHSLSKRSNLPGLRSGFVAGDAEILKAFLLYRTYHGCAMPVQTQLASIAAWNDEEHVRANRDLYREKFDAVLDILAPVLDVQRPDGGFYLWPNVGTDDAAFCRDLFVDQHVTAVPGSYLSREVDGVNPGAGRVRLALVAPLAECIEAAERIRAFVLK", "soluble on expression in E. coli": "not soluble"},
      {"sequence": "MARTDIRPIVKLRSTAGTGYTYTTRKNRRNDPDRLILRKYDPILRRHVDFREER", "soluble on expression in E. coli": "soluble"},
      {"sequence": "MKIGIIGVGKMASAIIKGLKQTPHELIISGSSLERSKEIAEQLALPYAMSHQDLIDQVDLVILGIKPQLFETVLKPLHFKQPIISMAAGISLQRLATFVGQDLPLLRIMPNMNAQILQSSTALTGNALVSQELQARVRDLTDSFGSTFDISEKDFDTFTALAGSSPAYIYLFIEALAKAGVKNGIPKAKALEIVTQTVLASASNLKTSSQSPHDFIDAICSPGGTTIAGLMELERLGLTATVSSAIDKTIDKAKSL", "soluble on expression in E. coli": "soluble"},
      {"sequence": "MKKILLLNGPNLNMLGKREPHIYGSQTLSDIEQHLQQSAQAQGYELDYFQANGEESLINRIHQAFQNTDFIIINPGAFTHTSVAIRDALLAVSIPFIEVHLSNVHAREPFRHHSYLSDVAKGVICGLGAKGYDYALDFAISELQKIQLGEMMNG", "soluble on expression in E. coli": "soluble"},
      {"sequence": "MGSDKIHHHHHHGKEEEGPIPTDRQVPIGVMEASLSTRVSTRGVINTDIYKLGIFRTNANGYPPQYDAPYSYDGAAGWTATTEILVDHRSASLYAYYPYQSVSFADNTTKAILVAQIYDAAKDMCYGSATSADGSGMINNDHKGVRFIDMKHAYARLKLTFVRGTNVMSGRKCKIENIVLKNNSTNFYLQRQVDITTGTITEGTPAAEGYVHNPNVEIASGNQVYEYLLPPQSLTDNKLTISVTVDGEVRTVTVTAFGGTLNAGGYYHVTLTINDVQIVPSAGVTDNGYTSGDDPKNPIQNNTPSVV", "soluble on expression in E. coli": "not soluble"},
      {"sequence": "MPVLGQIWELSDSQKVGSLDKRGAFVAFKLVAAAQQGKPVANSSLYDSSLQPPRFAPPVPPANMQHHFQPSFPSVGRAPPVPPPPHPSHPYSISSQQSSPAHPSSAFPPQWPITPTDQAKYDSIFQSLNPVNGKLSGAHVRPVLMNSGLDAHALARIWELSDQDKDGNLDRIEMSVALHLVYRSLQSDPVPAQLPPNLIHPSKAMYAHSSPNFAAPPHPPRPMMGSRAGSVTSLDDVNMSQSYSATMPRAYPPQPGRAYSAQAHVNGSRTSGASTPISASHSIHSFPAGEWPINTGDYADQFAQTDTNKDGLVDGMDMRAPMMTTGLSAQILAHVWALADIKKCGQLNLEQFALTMHLLDMAKRGESIPSELPLHLIPPSFRPPTEPSALHHPAQSVSTPQLPEATSMEIKEALEGENEEMKQLAESIQSMLVERKTAEEAVLQLEADMTIKNSSIKNLQVELATLESTVKQLERQKGEATRRLADYDTQIEQLESACKAQKETKEDTEKRMQQIDEDAKNAEDCKANDEKEMEELKKEIEMLDNQFKTVRGEIVKETSQREQKVAELTTLERKEARDQIQMEKLDAAIENTTKLTEQVSDAVEKSEEEMVQILRSQQRLLSTVIDQSLLSDDTVYGETAGTSSQNHVQQPPDPFASARANPAADPFAQVDQFGSSGHFDAAFPTDPFAQGGFPSDSGFAQSAPAKPAPPRPAPPKSARETPVNDPFAPSQGQSTQPAGFADFADFGSAFN", "soluble on expression in E. coli": "not soluble"},
      {"sequence": "MRLLTWDVKDTLLRLRHPLGEAYATKARAHGLEVEPSALEQGFRQAYRAQSHSFPNYGLSHGLTSRQWWLDVVLQTFHLAGVQDAQAVAPIAEQLYKDFSHPCTWQVLDGAEDTLRECRTRGLRLAVISNFDRRLEGILGGLGLREHFDFVLTSEAAGWPKPDPRIFQEALRLAHMEPVVAAHVGDNYLCDYQGPRAVGMHSFLVVGPQALDPVVRDSVPKEHILPSLAHLLPALDCLEGSAENLYFQSHHHHHHDYKDDDDK", "soluble on expression in E. coli": "soluble"}
    ]}
  ]
}
